Test results: patent US20150239980A1 (NEOTOPE BOSCIENCES, published 2015)
Numbering of substitutions follows the chain as printed. Values belong to the binder of their own block, whether it stands above or below them.

How the values were obtained:
[1] = biological target: T1, human MCAM (melanoma cell adhesion molecule) expressed on transfected CHO cells (human, UniProt P43121 24-646); test: laminin/FACS blocking assay, % inhibition of laminin 411 binding to hMCAM-expressing CHO cells against antibody concentration; blocked ligand: laminin 411
T1 construct: also called hMCAM; CD146
T1 chain: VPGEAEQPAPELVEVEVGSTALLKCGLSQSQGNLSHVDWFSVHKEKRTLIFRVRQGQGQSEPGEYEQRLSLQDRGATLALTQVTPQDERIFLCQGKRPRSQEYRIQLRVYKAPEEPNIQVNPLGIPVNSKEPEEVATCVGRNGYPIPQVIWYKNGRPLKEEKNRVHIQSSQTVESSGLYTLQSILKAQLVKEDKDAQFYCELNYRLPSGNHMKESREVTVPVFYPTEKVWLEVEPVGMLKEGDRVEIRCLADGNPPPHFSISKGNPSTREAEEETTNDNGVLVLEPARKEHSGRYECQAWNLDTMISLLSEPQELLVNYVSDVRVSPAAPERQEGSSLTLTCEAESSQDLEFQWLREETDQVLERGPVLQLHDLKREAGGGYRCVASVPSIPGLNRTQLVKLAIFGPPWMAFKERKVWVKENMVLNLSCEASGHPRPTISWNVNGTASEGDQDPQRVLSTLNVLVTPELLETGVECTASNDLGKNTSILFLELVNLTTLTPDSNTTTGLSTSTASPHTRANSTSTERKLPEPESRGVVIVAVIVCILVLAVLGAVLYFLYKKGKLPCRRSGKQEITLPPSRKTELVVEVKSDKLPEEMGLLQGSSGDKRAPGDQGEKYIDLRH
Experimental: (§1) Following incubation for 30-45 minutes, the cells were washed and anti-laminin conjugated to AF650 (NovusBio) was added to detect the bound laminin. The cells were run on a flow cytometer to measure the laminin binding signal.

[2] = biological target: T1, human MCAM (melanoma cell adhesion …); test: laminin/FACS on hMCAM CHO cells, competitor laminin 411; Expt#1; vs rodent 1749
Experimental: as §1

recombinant hMCAM-His [3] = biological target: T2, recombinant hMCAM-His (human, UniProt P43121 24-559); test: ForteBio Octet Red, hMCAM-His analyte; Expt. #2; vs rodent 1749
T2 construct: not shown: His tag
T2 chain: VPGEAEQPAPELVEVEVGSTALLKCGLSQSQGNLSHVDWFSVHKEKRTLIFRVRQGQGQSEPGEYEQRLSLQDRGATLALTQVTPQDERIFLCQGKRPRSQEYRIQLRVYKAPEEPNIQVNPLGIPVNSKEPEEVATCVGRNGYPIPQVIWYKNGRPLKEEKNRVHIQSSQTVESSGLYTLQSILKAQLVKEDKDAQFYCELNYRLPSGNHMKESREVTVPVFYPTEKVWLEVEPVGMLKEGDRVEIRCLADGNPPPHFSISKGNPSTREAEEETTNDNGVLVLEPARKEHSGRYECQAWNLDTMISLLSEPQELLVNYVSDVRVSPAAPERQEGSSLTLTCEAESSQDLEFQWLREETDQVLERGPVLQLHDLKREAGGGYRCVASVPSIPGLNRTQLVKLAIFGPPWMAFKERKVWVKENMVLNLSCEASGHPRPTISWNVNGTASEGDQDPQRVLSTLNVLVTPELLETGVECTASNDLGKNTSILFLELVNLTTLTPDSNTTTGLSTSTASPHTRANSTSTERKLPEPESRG
Experimental: (§2) The affinities were measured using the ForteBio Octet Red. Anti-human Fc sensors were used to capture the humanized antibodies, and several concentrations of hMCAMHis analyte were used to determine the affinity using a 1:1 fitting model.

recombinant hMCAM-His [4] = biological target: T2, recombinant hMCAM-His; test: competitive ELISA on hMCAM-His, competitor biotinylated rodent or chimeric 1749; Expt. #2; vs rodent 1749
Experimental: (§3) ELISA plates were coated with recombinant hMCAM-His, and blocked with casein buffer to prevent non-specific binding. Biotinylated rodent or chimeric antibody was added at a subsaturating concentration, in the presence or absence of 3× increasing concentrations of unlabeled competitor (humanized antibody, rodent, or chimeric). After washing to remove unbound antibody, streptavidin HRP was added to allow detection of the biotinylated antibody. The ELISA was developed with TMB substrate and the OD450 was measured. The IC50 of the unlabeled competitor was determined using the GraphPad Prism5 software.

[5] = biological target: T1, human MCAM (melanoma cell adhesion …); test: laminin/FACS on hMCAM CHO cells, competitor laminin 411; Expt#2; vs rodent 1749
Experimental: as §1

recombinant hMCAM-His [6] = biological target: T2, recombinant hMCAM-His; test: ForteBio Octet Red, hMCAM-His analyte; Forte column 1; vs rodent 1749
Experimental: as §2

recombinant hMCAM-His [7] = biological target: T2, recombinant hMCAM-His; test: competitive ELISA on hMCAM-His, competitor biotinylated rodent or chimeric 1749; Expt. #1; vs rodent 1749
Experimental: as §3

recombinant hMCAM-His [8] = biological target: T2, recombinant hMCAM-His; test: summary of ForteBio, hMCAM-His; vs rodent 2120
Experimental: as §2

recombinant hMCAM-His [9] = biological target: T2, recombinant hMCAM-His; test: ForteBio Octet Red, hMCAM-His analyte; Expt. #1; vs rodent 2120
Experimental: as §2

recombinant hMCAM-His [10] = biological target: T2, recombinant hMCAM-His; test: competitive ELISA on hMCAM-His, competitor biotinylated rodent or chimeric 2120; Expt. #1; vs rodent 2120
Experimental: as §3

recombinant hMCAM-His [11] = biological target: T2, recombinant hMCAM-His; test: ForteBio Octet Red, hMCAM-His analyte; Expt. #1; vs rodent 1749
Experimental: as §2

recombinant hMCAM-His [12] = biological target: T2, recombinant hMCAM-His; test: summary of ForteBio and competitive ELISA on hMCAM-His; vs rodent 1749
Experimental: as §3, §2

[13] = biological target: T1, human MCAM (melanoma cell adhesion …); test: summary of laminin blocking assay on hMCAM CHO cells, competitor laminin 411; vs rodent 1749
Experimental: as §1

recombinant hMCAM-His [14] = biological target: T2, recombinant hMCAM-His; test: competitive ELISA on hMCAM-His, competitor biotinylated rodent or chimeric 1749; vs rodent 1749
recombinant hMCAM-His [15] = biological target: T2, recombinant hMCAM-His; test: summary of ForteBio and competitive ELISA on hMCAM-His; vs rodent 2107
Experimental: as §3, §2

recombinant hMCAM-His [16] = biological target: T2, recombinant hMCAM-His; test: ForteBio Octet Red, hMCAM-His analyte; Expt. #1; vs rodent 2107
Experimental: as §2

recombinant hMCAM-His [17] = biological target: T2, recombinant hMCAM-His; test: competitive ELISA on hMCAM-His, competitor biotinylated rodent or chimeric 2107; Expt. #1; vs rodent 2107
Experimental: as §3

[18] = biological target: T1, human MCAM (melanoma cell adhesion …); test: summary of laminin blocking assay on hMCAM CHO cells, competitor laminin 411; vs rodent 2107
Experimental: as §1

- fold reduction in affinity as measured by ForteBio (recombinant hMCAM-His [8]): > 5 fold
- fold over rodent (Forte affinity) (recombinant hMCAM-His [9]): 16.1 fold
- fold over rodent (competitive ELISA) (recombinant hMCAM-His [10]): 3.47 fold
B2: h2120_VH3 + h2120_VL3 (antibody, human IgG1, V domains shown)
VH: QVTLKESGPVLVKPTETLTLTCTVSGFSLTSSGVSWVRQPPGKALEWIAAISSGGTTYYNSAFKSRLTISRDTSKSQVVLTMTNMDPVDTATYYCARRYGYGWYFDFWGQGTLVTVSS
VL: DIQMTQSPSSLSASVGDRVTINCKASQNIYNSLAWYQQKPGKAPKVLIFNANSLQTGIPSRFSGSGSGTDFTLTISSLQPEDFATYYCQQFYSGYTFGQGTKLEIK

- fold over rodent (Forte affinity) (recombinant hMCAM-His [11]): 0.73 fold
- IC50 (read off the curve) [1]: ~0.4 µg/mL
- fold over rodent (blocking, laminin/FACS) [2]: 1.8 fold
- fold reduction in affinity compared to the rodent (recombinant hMCAM-His [12]): < 2 fold
- fold reduction in potency compared to the rodent [13]: < 2 fold
- fold over rodent (Forte affinity) (recombinant hMCAM-His [3]): 1.09 fold
- fold over rodent (competitive ELISA) (recombinant hMCAM-His [4]): 1.46 fold
- fold over rodent (blocking, laminin/FACS) [5]: 1.7 fold
- fold over rodent (Forte affinity) (recombinant hMCAM-His [6]): 0.7 fold
- fold over rodent (competitive ELISA) (recombinant hMCAM-His [14]): 1.1 fold
- fold over rodent (competitive ELISA) (recombinant hMCAM-His [7]): 1.28 fold
B3: h1749VH2 + h1749VL2 (antibody, human IgG1, V domains shown)
VH: EVQLVESGGGLVQPGGSLRLSCAASGFTFSSYIMSWVRQAPGKRLEWVATISSGGSSTYYPDSVKGRFTISRDNAKNSLYLQMNSLRAEDTAVYYCTRDDDYDVKVFAYWGQGTMVTVSS
VL: DIVMTQSPDSLAVSLGERATINCKSSRSLLNSRIRKNYLAWYQQKPGQPPKLLIYWASTRESGVPDRFTGSGSGTDFTLTISSLQAEDVAVYYCKQSYNLLTFGQGTKVEIK
notes: also called humanized 1749 conservative VH and VL

- fold reduction in affinity compared to the rodent (recombinant hMCAM-His [15]): < 3 fold
- fold over rodent (Forte affinity) (recombinant hMCAM-His [16]): 2.54 fold
- fold over rodent (competitive ELISA) (recombinant hMCAM-His [17]): 1.62 fold
- fold reduction in potency compared to the rodent [18]: < 3 fold
B5: h2107_VH3 + h2107_VL2 (antibody, human IgG1, V domains shown)
VH: QVTLKESGPVLVKPTETLTLTCTVSGFSLTSNGVSWVRQPPGKALEWIAAISSGGSTYYNSAFKSRLTISRNTSKSQVVLTMTNMDPVDTATYYCARHRPFYFDYWGQGTLVTVSS
VL: DIQMTQSPSSLSASVGDRVTITCKGSQNIYKSLAWFQLKPGKVPKLLIYDANSLQTGIPSRFSGSGSGTDFTLTISSLQPEDVATYYCQQYYSGYTFGGGTKVEIK
notes: also called VH3VL2

Further lines, the binder ahead of its results:

B1: chimeric 1749 (antibody, V domains shown)
VH: DVKLVESGGDLVKPGGSLKLSCAASGFTFSSYIMSWVRQTPEKRLEWVATISSGGSSTYYPDSVKGRFTISRDNAKNTLYLQMSSLKSEDTAMYYCTRDDDYDVKVFAYWGQGTLVTVSA
VL: DIVMSQSPSSLAVSAGEKVTMNCKSSRSLLNSRIRKNYLAWYQQKPGQSPKLLIYWASTRESGVPDRFTGSGSGTDFTLTISSVQAEDLAVYYCKQSYNLLTFGAGTKLELK
- IC50 (read off the curve) [1]: ~0.5 µg/mL
- fold over rodent (blocking, laminin/FACS) [2]: 1.4 fold
- fold over rodent (Forte affinity) (recombinant hMCAM-His [3]): 0.79 fold
- fold over rodent (competitive ELISA) (recombinant hMCAM-His [4]): 0.97 fold
- fold over rodent (blocking, laminin/FACS) [5]: 1.4 fold
- fold over rodent (Forte affinity) (recombinant hMCAM-His [6]): 0.6 fold
- fold over rodent (competitive ELISA) (recombinant hMCAM-His [7]): 0.81 fold

B4: h1749VH1 + h1749VL1 (antibody, human IgG1, V domains shown)
VH: B3 VH with R44G
VL: B3 VL with T69S
notes: also called humanized 1749 standard VH and VL
- fold over rodent (Forte affinity) (recombinant hMCAM-His [11]): 2.5 fold
- fold over rodent (blocking, laminin/FACS) [2]: 1.4 fold
- fold reduction in affinity compared to the rodent (recombinant hMCAM-His [12]): < 2 fold
- fold reduction in potency compared to the rodent [13]: < 2 fold
- fold over rodent (Forte affinity) (recombinant hMCAM-His [3]): 2.41 fold
- fold over rodent (competitive ELISA) (recombinant hMCAM-His [4]): 1.35 fold
- fold over rodent (blocking, laminin/FACS) [5]: 1.4 fold
- fold over rodent (Forte affinity) (recombinant hMCAM-His [6]): 2.5 fold
- fold over rodent (competitive ELISA) (recombinant hMCAM-His [14]): 1 fold
- fold over rodent (competitive ELISA) (recombinant hMCAM-His [7]): 1.26 fold
